# Test results as given in patent US11485987B2, “Methods for inducing bioorthogonal reactivity” (University of Delaware, priority 2015, dated 2022).
# Positions count from the first letter of the chain named. Names may count otherwise.
# B1: horseradish peroxidase (HRP) (Armoracia rusticana) (protein)
# chain: QLTPTFYDNSCPNVSNIVRDTIVNELRSDPRIAASILRLHFHDCFVNGCDASILLDNTTSFRTEKDAFGNANSARGFPVIDRMKAAVESACPRTVSCADLLTIAAQQSVTLAGGPSWRVPLGRRDSLQAFLDLANANLPAPFFTLPQLKDSFRNVGLNRSSDLVALSGGHTFGKNQCRFIMDRLYNFSNTGLPDPTLNTTYLQTLRGLCPLNGNLSALVDFDLRTPTIFDNKYYVNLEEQKGLIQSDQELFSSPNATDTIPLVRSFANSTQTFFNAFVEAMDRMGNITPLTGTQGQIRLNCRVVNSNS
# B2: APEX2 (SEQ ID NO:1) (Glycine max; A134P/E112K/K14D/W41F) (protein)
# chain: MGKSYPTVSADYQDAVEKAKKKLRGFIAEKRCAPLMLRLAFHSAGTFDKGTKTGGPFGTIKHPAELAHSANNGLDIAVRLLEPLKAEFPILSYADFYQLAGVVAVEVTGGPKVPFHPGREDKPEPPPEGRLPDPTKGSDHLRDVFGKAMGLTDQDIVALSGGHTIGAAHKERSGFEGPWTSNPLIFDNSYFTELLSGEKEGLLQLPSDKALLSDPVFRPLVDKYAADEDAFFADYAEAHQKLSELGFADA
# B3: F41A APEX2 (Glycine max; A134P/E112K/K14D/W41A) (protein)
# chain: B2 chain with F41A
# Experiments:
# Assay type in all cases: biochemical
# [1] = substrate: O=C(O)CCC(=O)Nc1ccc(C2=NNC(c3ccccn3)=NN2)nc1; assay: Horseradish peroxidase (HRP) catalyzed oxidation of DHTz to tetrazine; conditions: other: HRP, peroxide-free, PBS containing EDTA (2.0 mM); pH 7.4; 25.0 °C
# Experimental: Upon addition of horseradish peroxidase (15 nM) the UV-vis spectrum was monitored every 10 seconds. With 50% conversion after 100 seconds, complete conversion of 3a to 4a is observed after 600 seconds, as evidenced by the decrease in the absorption at 292 nm and increase at 325 nm with an isosbestic point at 303 nm. Similar spectral changes are observed when 3a is electrochemically oxidized to 4a in aqueous solution, or when the oxidation of 3a to 4a is photocatalyzed by methylene blue. […] Methylene blue was considered a particularly attractive sensitizer due to its clinical relevance, low molecular weight, low toxicity, high solubility, and an absorption spectrum (λmax 665 nm) that extends to the near IR. Further, methylene blue has previously been explored for applications in photodynamic therapy based on oxidation of indole-3-acetic acid. Rose bengal (λmax 550 nm), used in a range of biomedical applications, was also identified as an excellent sensitizer. […] Methylene blue (4 μM) also catalyzed the conversion of 3a to 4a in the presence of ambient light, with 47% conversion noted after 2 h. […] The mechanism of photooxidation more likely involves electron transfer and is the subject of ongoing study.
# As a complement to these photocatalyzed reactions, the inventors observed that HRP can efficiently catalyze the oxidation of 3a in the dark at low enzyme concentration (15 nM) (FIG. 4). While HRP typically requires H2O2 as the terminal oxidant, the addition of HRP to a peroxide-free solution of 3a (30 μM) in PBS led to the rapid formation of 4a (FIG. 4, panel B). […]
# Solutions (1 mL) containing 3a (30 μm) in PBS buffer were prepared in a cuvette from stock solutions. Oxidation of 3a to 4a was monitored by recording absorbance at 325 nm every 10 seconds while either hydrogen peroxide (2 mM), HRP (15 nM) or both were added (FIG. 4, panel B). […] The oxidation rate was determined by observing the conversion of 3a to 4a in the first 10 seconds after mixing in HRP (15 nM) and subtracting the background oxidation prior to the addition of HRP.
# [2] = substrate: CCCCNC(=O)C1=NNC(c2ccccn2)=NN1; assay: Oxidation of DHT by APEX2, UV-Vis initial rates and kinetic parameters; conditions: pH 7.4, 25.0 °C
# Experimental: (§1) UV-Vis and fluorescence measurements were conducted in quartz cuvettes. All reactions were conducted in phosphate buffered saline (PBS) containing 100 μM EDTA with a pH=7.4. The PBS was prepared by adding 25 mM phosphate salts (Na2HPO4 and NaH2PO4), 100 mM NaCl, 100 μM EDTA to DI water. EDTA was added to quench free metals that can oxidize DHT. The buffer was pH adjusted to 7.4 using 1 mM HCl and 1 mM NaOH. UV experiments were stirred at 25° C. in a temperature-controlled cuvette holder of the spectrophotometer. Solutions of 15 or 16 were prepared from methanol stock solutions.
# (§2) 15 or 16 (60 μM) from methanol stock solutions was added to PBS containing 100 μM EDTA. After 10s, APEX2 (SEQ ID NO:1) (275 nM) was dosed in and oxidation was monitored at 325 nm for 15 and 285 nm for 16 at 60s intervals (FIG. 10B-C).
# (§3) 16 (15 μM) DHT from methanol stock solutions was added to PBS containing 100 μM EDTA. After 10s, APEX2 (SEQ ID NO:1) (275 nM) or HRP (15 nM) was dosed in and oxidation was monitored at 285 nm at 10s intervals (FIG. 10D)
# (§4) SOD (1 μM) was added to PBS containing 100 μM EDTA. 15 or 16 (60 μM) was added from methanol stock solutions. After 10s, APEX2 (SEQ ID NO:1) or F41A APEX2 (275 nM) was dosed in and oxidation was monitored at 325 nm for 15 and 285 nm for 16 at 60s intervals.
# (§5) The initial rate of oxidation was calculated from the first 100 seconds after APEX2 (SEQ ID NO:1) or F41A APEX2 was added ([…]). In the assays where SOD was added, SOD (1 μM) was added to PBS containing 100 μM EDTA and 15 or 16 was dosed in. 10 seconds later, APEX2 (SEQ ID NO:1) or F41A APEX2 ([…]) was added and the rate of oxidation was calculated from the first 100 seconds after APEX2 (SEQ ID NO:1) or F41A APEX2 ([…]) addition. The initial rate of oxidation was adjusted to background oxidation of DHT in PBS with 100 μM EDTA. Kinetic parameters (Table 2) were determined using GraphPad's Prism 6 software from the data presented below (Table 3-4).
# [3] = substrate: O=C(O)CCCC(=O)Nc1ccc(C2=NNC(c3ccccn3)=NN2)nc1; assay: as above; conditions: pH 7.4, 25.0 °C
# Experimental: as §1, §2, §3, §4, §5
# [4] = substrate: CCCCNC(=O)C1=NNC(c2ccccn2)=NN1; assay: Oxidation of DHT by F41A APEX2, UV-Vis initial rates and kinetic parameters; conditions: other: F41A APEX2 + SOD; pH 7.4; 25.0 °C
# Experimental: as §1, §4, §5
# [5] = substrate: O=C(O)CCCC(=O)Nc1ccc(C2=NNC(c3ccccn3)=NN2)nc1; assay: as above; conditions: other: F41A APEX2 + SOD; pH 7.4; 25.0 °C
# Experimental: as §1, §4, §5
# [6] = other: APEX2 (SEQ ID NO: 1) + SOD
# [7] = other: APEX2 (SEQ ID NO: 1), no SOD
protein,measurement,setting,value
B1,Km,[1],100 µM
same,kcat,[1],27 s⁻¹
same,kcat/Km,[1],270000 M⁻¹ s⁻¹
B2,Km,[2]; [6],17.29 µM
same,kcat,[2]; [6],0.115 s⁻¹
same,kcat/Km,[2]; [6],6662 M⁻¹ s⁻¹
same,Km,[2]; [7],22.61 µM
same,kcat,[2]; [7],0.077 s⁻¹
same,kcat/Km,[2]; [7],3426 M⁻¹ s⁻¹
same,Km,[3]; [6],41.41 µM
same,kcat,[3]; [6],0.247 s⁻¹
same,kcat/Km,[3]; [6],5956 M⁻¹ s⁻¹
same,Km,[3]; [7],47.56 µM
same,kcat,[3]; [7],0.197 s⁻¹
same,kcat/Km,[3]; [7],4134 M⁻¹ s⁻¹
B3,Km,[4],104.6 µM
same,kcat,[4],0.408 s⁻¹
same,kcat/Km,[4],3900 M⁻¹ s⁻¹
same,Km,[5],263 µM
same,kcat,[5],1.72 s⁻¹
same,kcat/Km,[5],6533 M⁻¹ s⁻¹
